Reference: publication PMC11259132, “Tyrosine phenol-lyase inhibitor quercetin reduces fecal phenol levels in mice” (PNAS Nexus, 2024)

Substrate: N[C@@H](Cc1ccc(O)cc1)C(=O)O
Assay: enzyme kinetics (Km), phenol by LC-MS
Type: biochemical, Morganella morganii
Details: pyridoxal […]'-phosphate (PLP)

B1: Tyrosine phenol-lyase (TPL) (Morganella morganii subsp. morganii KT) (protein)
chain: MMYPAEPYRIKSVETVSMIPREERIKRMKEAGYNTFLLNSKDVYVDLLTDSGTNAMSDKQWAGMMMGDEAYAGSENFFHLERTVQELFGFKHIVPTHQGRGAENLLSSLAIKPGQYVAGNMYFTTTRYHQEKNGATFIDIVRDEAHDAGLDVKFKGNIDIKKLEKLIAEKGAENIAYICLAVTVNLAGGQPVSMANMREVRQLCDKHGIKVFYDATRCVENAYFIKEQEEGFEDVSIKDIVHEMFSYADGCTMSGKKDCLVNIGGFLCMNDDDMFSAARELVVVYEGMPSYGGLAGRDMEAMAIGLREAMQFEYIEHRVKQVRYLGEKLKAAGVPIVEPVGGHAVFLDARRFCPHLTQDEFPAQSLAASIYMETGVRSMERGIISAGRNKETGDHHRPKLETVRLTIPRRVYTYAHMDLVADGIIKLFKHKEDIKGLKFVYEPKQLRFFTARFDYV
notes: recombinant TPL from M. morganii ssp. morganii (JCM1672), pET-15b
Km: 270 µM
